This note sets out measurements from US20110212094A1 (AbbVie / Abbott, published 2011).

In general, Kd refers to a measure of binding affinity in units of concentration. Broadly, the koff is the first-order rate constant of dissociation. Usually kon stands for a measure of how fast the partners come together.

In assay [1] the target is T1, Recombinant Human TNF-α/TNFSF1A (human, UniProt P01375 77-233).
T1 construct: Bought reagent for Biacore; also called huTNFα
Put plainly: Biacore SPR. On the procedure: (§1) The BIACORE assay (Biacore, Inc, Piscataway, N.J.) determines the affinity of antibodies or DVD-Ig with kinetic measurements of on-rate and off-rate constants. Binding of antibodies or DVD-Ig to a target antigen (for example, a purified recombinant target antigen) is determined by surface plasmon resonance-based measurements with a Biacore® 1000 or 3000 instrument (Biacore® AB, Uppsala, Sweden) using running HBS-EP (10 mM HEPES [pH 7.4], 150 mM NaCl, 3 mM EDTA, and 0.005% surfactant P20) at 25° C. All chemicals are obtained from Biacore® AB (Uppsala, Sweden) or otherwise from a different source as described in the text. For example, approximately 5000 RU of goat anti-mouse IgG, (Fcγ), fragment specific polyclonal antibody (Pierce Biotechnology Inc, Rockford, Ill.) diluted in 10 mM sodium acetate (pH 4.5) is directly immobilized across a CM5 research grade biosensor chip using a standard amine coupling kit according to manufacturer's instructions and procedures at 25 μg/ml. Unreacted moieties on the biosensor surface are blocked with ethanolamine. Modified carboxymethyl dextran surface in flowcell 2 and 4 is used as a reaction surface. Unmodified carboxymethyl dextran without goat anti-mouse IgG in flow cell 1 and 3 is used as the reference surface. For kinetic analysis, rate equations derived from the 1:1 Langmuir binding model are fitted simultaneously to association and dissociation phases of all eight injections (using global fit analysis) with the use of Biaevaluation 4.0.1 software. Purified antibodies or DVD-Ig are diluted in HEPES-buffered saline for capture across goat anti-mouse IgG specific reaction surfaces. Antibodies or DVD-Ig to be captured as a ligand (25 μg/ml) are injected over reaction matrices at a flow rate of 5 μl/min. The association and dissociation rate constants, kₘ (M⁻¹s⁻¹) and koff (s⁻¹) are determined under a continuous flow rate of 25 μl/min. Rate constants are derived by making kinetic binding measurements at different antigen concentrations ranging from 10-200 nM. The equilibrium dissociation constant (M) of the reaction between antibodies or DVD-Igs and the target antigen is then calculated from the kinetic rate constants by the following formula: KD=koff/kₒₙ. Binding is recorded as a function of time and kinetic rate constants are calculated.
(SPR reads the build-up and loss of mass on a sensor chip optically.)

The target of assay [2] is T1, Recombinant Human TNF-α/TNFSF1A. The assay can be described thus: cell-based or functional assay.
Another assay concerns the target T2, Recombinant Human SOST (human, UniProt Q9BQB4 24-213).
T2 construct: R&D reagent in Biacore; also called sclerostin; Human sclerostin (Abbott PR-1261069)
T2 sequence (looked up): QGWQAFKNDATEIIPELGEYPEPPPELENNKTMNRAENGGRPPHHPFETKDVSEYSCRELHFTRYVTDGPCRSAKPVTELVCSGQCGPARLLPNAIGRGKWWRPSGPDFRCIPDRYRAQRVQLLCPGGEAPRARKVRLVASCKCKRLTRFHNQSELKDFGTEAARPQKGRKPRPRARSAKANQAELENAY
The assay can be described thus: Biacore SPR. The protocol: as §1

T1 sequence (P01375 77-233 limits assumed): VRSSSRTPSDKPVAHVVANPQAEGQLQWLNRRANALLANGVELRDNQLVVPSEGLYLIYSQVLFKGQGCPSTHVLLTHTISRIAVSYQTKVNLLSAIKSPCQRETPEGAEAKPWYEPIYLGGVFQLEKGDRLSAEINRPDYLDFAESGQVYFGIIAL

B1: AB215 (antibody, human IgG1, kappa, V domains shown)
VH: QVQLVESGGGVVQPGRSLRLSCAASGFTFSSYAMHWVRQAPGNGLEWVAFMSYDGSNKYAKDSVKGRFTISRDNSKNTLYLQMNSLRAEDTAVYYCARDRGIAAGGNYYYYGMDVWGQGTTVTVSS
VL: EIVLTQSPATLSLSPGERATLSCRASQSVYSYLAWYQQKPGQAPRLLIYDASNRATGIPARFSGSGSGTDFTLTISSLEPEDFAVYYCQQRSNWPPFTFGPGTKVDIKR
notes: Parent anti-TNF antibody; also called AB215VH
Regarding B1, in assay [1], the Kd was 0.157 nM, the off-rate (koff) was found to be 0.000272 s⁻¹ and the on-rate (kon) was 1.74e+06 M⁻¹ s⁻¹. Besides, the “TNFα Neutralization Assay EC50 nM (L929 cells)” value in assay [2] was determined as 1.21 nM.

B2: DVD1256 (bispecific antibody, human IgG1, kappa)
heavy: not shown
light: EIVMTQSPATLSVSPGERATLSCRASQSVSSNLAWYQQKPGQAPRLLIHGASIRATGLPARFSGSGSGTEFTLTISSLQSEDFAVYYCQQYNYWWTFGQGTKVEIKRTVAAPDVQMIQSPSSLSASLGDIVTMTCQASQGTSINLNWFQQKPGKAPKLLIYGSSNLEDGVPSRFSGSRYGTDFTLTISSLEDEDLATYFCLQHSYLPYTFGGGTKLEIKRTVAAPSVFIFPPSDEQLKSGTASVVCLLNNFYPREAKVQWKVDNALQSGNSQESVTEQDSKDSTYSLSSTLTLSKADYEKHKVYACEVTHQGLSSPVTKSFNRGEC
notes: constant regions from vectors V1/V2; also called DVD1256H; DVD1256L
Take B2: in the assay with Recombinant Human SOST, the Kd was found to be 1.59 nM, the koff came out at 0.000365 s⁻¹ and the kon amounted to 230000 M⁻¹ s⁻¹. In assay [1], the Kd worked out at 0.0347 nM, the koff is 8.55e-05 s⁻¹ and the kon is 2.46e+06 M⁻¹ s⁻¹.

B3: AB213 (antibody, human IgG1, kappa, V domains shown)
VH: QVQLKESGPGLVAPSQSLSITCTVSGFSLTDYGVNWVRQPPGKGLEWLGMIWGDGSTDYDSTLKSRLSISKDNSKSQIFLKMNSLQTDDTARYYCAREWHHGPVAYWGQGTLVTVSA
VL: DIVMTQSHKFMSTTVGDRVSITCKASQAVSSAVAWYQQKPGQSPKLLIYWASTRHTGVPDRFTGSGSVTDFTLTIHNLQAEDLALYYCQQHYSTPFTFGSGTKLEIKR
notes: Parent anti-TNF antibody; also called AB213VH
Regarding B3, in assay [1], the Kd turned out to be 0.0335 nM, the koff came to 0.000108 s⁻¹ and the kon turned out to be 3.23e+06 M⁻¹ s⁻¹. In addition, the “TNFα Neutralization Assay EC50 nM (L929 cells)” value in assay [2] was found to be 0.189 nM.

B4: AB022 (antibody, V domains shown)
VH: EVQLQQSGPELVTPGASVKISCKASGYTFTDHYMSWVKQSHGKSLEWIGDINPYSGETTYNQKFKGTATLTVDKSSSIAYMEIRGLTSEDSAVYYCARDDYDASPFAYWGQGTLVTVSA
VL: DVQMIQSPSSLSASLGDIVTMTCQASQGTSINLNWFQQKPGKAPKLLIYGSSNLEDGVPSRFSGSRYGTDFTLTISSLEDEDLATYFCLQHSYLPYTFGGGTKLEIKR
notes: Parent anti-SOST antibody; also called SOST; AB022VH
B4: in the assay with Recombinant Human SOST, the Kd was 0.0408 nM, the koff is 0.000396 s⁻¹ and the kon came out at 9.68e+06 M⁻¹ s⁻¹.

B5: AB214 (antibody, human IgG1, kappa, V domains shown)
VH: EVKLEESGGGLVQPGGSMKLSCVASGFIFSNHWMNWVRQSPEKGLEWVAEIRSKSINSATHYAESVKGRFTISRDDSKSAVYLQMTDLRTEDTGVYYCSRNYYGSTYDYWGQGTTLTVSS
VL: DILLTQSPAILSVSPGERVSFSCRASQFVGSSIHWYQQRTNGSPRLLIKYASESMSGIPSRFSGSGSGTDFTLSINTVESEDIADYYCQESHSWPFTFGSGTNLEVKR
notes: Parent anti-TNF antibody; also called AB214VH
As to B5, in assay [1], the Kd stood at 0.107 nM, the koff was determined as 0.000291 s⁻¹ and the kon amounted to 2.73e+06 M⁻¹ s⁻¹. The “TNFα Neutralization Assay EC50 nM (L929 cells)” value in assay [2] was determined as 0.04 nM.

B6: DVD1229 (bispecific antibody, human IgG1, kappa)
heavy: not shown
light: DVQMIQSPSSLSASLGDIVTMTCQASQGTSINLNWFQQKPGKAPKLLIYGSSNLEDGVPSRFSGSRYGTDFTLTISSLEDEDLATYFCLQHSYLPYTFGGGTKLEIKRTVAAPDILLTQSPAILSVSPGERVSFSCRASQFVGSSIHWYQQRTNGSPRLLIKYASESMSGIPSRFSGSGSGTDFTLSINTVESEDIADYYCQESHSWPFTFGSGTNLEVKRTVAAPSVFIFPPSDEQLKSGTASVVCLLNNFYPREAKVQWKVDNALQSGNSQESVTEQDSKDSTYSLSSTLTLSKADYEKHKVYACEVTHQGLSSPVTKSFNRGEC
notes: constant regions from vectors V1/V2; also called DVD1229H; DVD1229L
As for B6, in the assay with Recombinant Human SOST, the Kd came out at 0.0226 nM, the koff was 0.00019 s⁻¹ and the kon is 8.43e+06 M⁻¹ s⁻¹. Moreover, in assay [1], the equilibrium dissociation constant (Kd) stood at 3.6 nM, the koff is 0.000398 s⁻¹ and the kon was determined as 110000 M⁻¹ s⁻¹.
